The target of the experiment is MERS-CoV main protease (M^pro), wild type, authentic N-terminus (MERS-CoV). In words: AUC.

Chain of MERS-CoV main protease (M^pro), wild type, authentic N-terminus (enzyme) (K9N638 3248-3553 limits assumed): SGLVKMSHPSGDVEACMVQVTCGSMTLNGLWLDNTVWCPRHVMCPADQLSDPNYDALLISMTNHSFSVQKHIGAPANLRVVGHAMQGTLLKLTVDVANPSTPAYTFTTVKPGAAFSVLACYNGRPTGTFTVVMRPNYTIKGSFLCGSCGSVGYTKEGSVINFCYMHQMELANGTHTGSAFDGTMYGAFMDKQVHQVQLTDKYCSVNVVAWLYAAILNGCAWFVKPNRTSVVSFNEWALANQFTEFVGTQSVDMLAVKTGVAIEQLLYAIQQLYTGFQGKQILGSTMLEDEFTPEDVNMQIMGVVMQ

For the substance “MERS-CoV main protease (M^pro), wild type, authentic N-terminus (enzyme)”, the percent dimer is 70%.

The values are drawn from publication PMC4682845.
